The target in experiment [1] is human CCR8 (human) (UniProt P51685). Put plainly: FACS, CHO-hCCR8.
In experiment [2] the target is cynomolgus CCR8 (cynomolgus). Put plainly: FACS, CHO-cynoCCR8.
The target in experiment [3] is human CCR8 (human) (UniProt P51685). Put plainly: cell-based or functional assay.
Experiment [4] has the same target. The experiment in a line: FACS, BODIPY-labelled antibody, HuT78.

cynomolgus CCR8 (cynomolgus), sequence (O97665 other isoform, or with tags, fused parts or gaps): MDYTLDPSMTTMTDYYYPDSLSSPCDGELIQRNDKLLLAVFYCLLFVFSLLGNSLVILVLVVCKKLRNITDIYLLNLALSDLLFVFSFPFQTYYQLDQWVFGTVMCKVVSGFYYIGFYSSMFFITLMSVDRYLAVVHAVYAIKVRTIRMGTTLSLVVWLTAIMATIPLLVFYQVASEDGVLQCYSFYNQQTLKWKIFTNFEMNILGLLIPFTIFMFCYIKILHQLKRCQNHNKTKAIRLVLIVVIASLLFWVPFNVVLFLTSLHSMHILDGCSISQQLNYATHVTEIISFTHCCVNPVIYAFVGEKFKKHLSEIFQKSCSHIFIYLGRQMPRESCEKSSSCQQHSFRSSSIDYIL

B1: 433H (antibody, from another filing, V domains shown)
VH: EVQLVETGGGLVQPKGSLRLSCAASGFPFNTFAMNWVRQAPGKGLEWLARIRSKSNNYATYYADSVKDRFTISRDDSRRMLYLLMNNVKFEDTAIYYCVRGKENNYGYAMDYWGQGTSVTVSS
VL: DIVMTQAAPSVPVTPGESVSISCRSSQSLLHSNGNTYLYWFLQRPGQSPQLLIYRMSNLASGVPDRFSGSGSGTAFTLRISRVEAEDVGVYYCMQHLEYPFTFGIGTKLELKR
For B1, the EC50 with human CCR8 (human) [1] was 2.8 nM. Also, the 50% effective concentration (EC50) in experiment [2] is 12.1 nM. In the experiment with human CCR8 (human) [3], this molecule had an IC50, Ca flux assay of 1.3 nM and an IC50, inhibition of CCL1 induced β-arrestin signaling of 0.78 nM. Besides, the FACS HuT78 [MFI] with human CCR8 (human) [4] was determined as 50 MFI.

For the origin of these results see US20230250178A1.
